Measurements from patent publication US20250115669A1, “FGFR1/KLB Targeting Agonistic Antigen-Binding Proteins and Conjugates Thereof with GLP-1R Agonistic Peptides” (SANOFI, priority 2020, published 2025).

Legend:
[1] = Dynamic light scattering (DLS) and diffusion interaction parameter (kD); assay type: physicochemical
Protocol: Dynamic light scattering (DLS) was performed using a DynaPro Plate Reader (Wyatt Technology). The samples were measured in 384 well assay plates (Corning) at 25° C. Data were evaluated by cumulant fitting using Dynamics Software version 7.7.0.125 (Wyatt Technology).
Colloidal stability of the samples was assessed by measuring the diffusion interaction parameter (kD) at 20° C. using a DynaPro Plate Reader (Wyatt Technology). Before the measurements the samples were buffer exchanged against 5 L of 10 mmol/L Histidine pH 6.0 by dialysis for 20 h with one buffer change using 1 mL Float-A-Lyzer G2 devices with 3.5-5 kDa cut-off (Spectrum Labs). A dilution series from 1 to 4.5 mg/mL, in 0.5 mg/mL increments, was prepared in 10 mmol/L Histidine pH 6.0 and measured in 384 well assay plates (Corning).

[2] = Nano differential scanning fluorimetry (nanoDSF), Tonset and Tm; assay type: physicochemical
Protocol: Onset temperatures (Tonset) and melting points (Tm) of protein denaturation were determined using nano differential scanning fluorimetry (nanoDSF). Samples were diluted in formulation buffer to a final concentration of 0.5 mg/mL and loaded into nanoDSF capillaries in duplicates (Nanotemper Technologies). All measurements were done using a Prometheus NT.plex nanoDSF device (Nanotemper Technologies). Heating rate was 1° C. per minute from 20° C. to 95° C. Data were recorded using PR.ThermControl Software v2.3.1 (Nanotemper Technologies) and analyzed using PR.Stability Analysis Software v1.0.3 (Nanotemper Technologies).

[3] = Capillary gel electrophoresis (cGE); assay type: physicochemical
Protocol: Capillary Gel Electrophoresis (cGE) Purity and size heterogeneity of the samples was determined by capillary gel electrophoresis (cGE) using a CES18000 instrument (SCIEX) equipped with a pre-assembled fused silica capillary (50 μm×300 mm, SCIEX). Protein samples at 1 mg/ml were prepared using the IgG purity heterogeneity Kit (SCIEX) under non-reducing conditions according to the manufacturer's specifications. Samples were electrophoretically separated for 35 minutes at 25° C. and the absorbance at 220 nm was recorded by a photo diode array (PDA) detector. The data were analyzed using 32 Karat Software (SCIEX).

human beta-Klotho = target: T1, human beta-Klotho (Homo sapiens, UniProt Q86Z14); assay: SPR analysis of the active fraction of stressed antibodies; assay type: binding; conditions: 21 days
T1 sequence (Q86Z14 1-1044): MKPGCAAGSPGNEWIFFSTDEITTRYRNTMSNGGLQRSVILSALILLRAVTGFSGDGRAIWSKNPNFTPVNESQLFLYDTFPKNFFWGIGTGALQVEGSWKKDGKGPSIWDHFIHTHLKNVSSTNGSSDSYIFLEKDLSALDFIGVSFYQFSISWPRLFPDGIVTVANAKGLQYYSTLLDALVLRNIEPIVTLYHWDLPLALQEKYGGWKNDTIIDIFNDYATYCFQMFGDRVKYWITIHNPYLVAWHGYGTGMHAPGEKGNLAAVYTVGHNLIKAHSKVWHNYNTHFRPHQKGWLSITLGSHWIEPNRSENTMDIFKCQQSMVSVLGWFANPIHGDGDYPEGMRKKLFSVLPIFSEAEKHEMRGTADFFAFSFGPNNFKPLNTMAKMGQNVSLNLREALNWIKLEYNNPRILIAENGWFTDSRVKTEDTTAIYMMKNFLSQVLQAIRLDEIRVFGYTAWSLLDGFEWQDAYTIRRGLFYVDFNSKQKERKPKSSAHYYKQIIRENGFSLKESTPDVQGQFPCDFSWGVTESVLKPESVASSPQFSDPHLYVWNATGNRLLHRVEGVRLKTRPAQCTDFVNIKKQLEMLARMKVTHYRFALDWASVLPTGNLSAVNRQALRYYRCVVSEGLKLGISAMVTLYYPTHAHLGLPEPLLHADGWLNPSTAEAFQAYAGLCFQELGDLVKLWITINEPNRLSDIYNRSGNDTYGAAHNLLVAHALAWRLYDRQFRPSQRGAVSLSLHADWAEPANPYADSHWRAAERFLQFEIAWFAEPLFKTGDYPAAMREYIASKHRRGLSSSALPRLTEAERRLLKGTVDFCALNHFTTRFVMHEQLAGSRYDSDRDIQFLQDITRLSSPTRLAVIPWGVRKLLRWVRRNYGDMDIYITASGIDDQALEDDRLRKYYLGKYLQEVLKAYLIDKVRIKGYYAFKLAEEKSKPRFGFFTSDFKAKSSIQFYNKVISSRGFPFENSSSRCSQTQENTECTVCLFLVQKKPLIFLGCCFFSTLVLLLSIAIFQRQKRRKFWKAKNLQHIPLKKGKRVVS
Protocol: Analysis of the active fraction of stressed antibodies was performed by SPR using the same Fc capture assay set up as described above for the affinity determination. In this case the association and dissociation times for human beta-Klotho were set to 240 sec and 300 sec, respectively. The active fraction of the samples was calculated as the ratio of binding signal for human beta-Klotho and the Fc capture signal of the antibody, normalized to the active fraction of the unstressed control samples. Mean values from three experiments were calculated.

Substance | Homogeneity DLS Hydrodynamic radius [1] | DLS Hydrodynamic radius ([1]; pH 5, 40° C., d 21) | DLS Hydrodynamic radius ([1]; pH 5, d 0) | DLS Hydrodynamic radius ([1]; pH 6, 40° C., d 21) | DLS Hydrodynamic radius ([1]; pH 6, d 0) | DLS Hydrodynamic radius ([1]; pH 8, 40° C., d 21) | DLS Hydrodynamic radius ([1]; pH 8, d 0) | Thermal stability DSF Tm [2] | Thermal stability DSF Tonset [2] | DSF Tm ([2]; pH 5, 40° C., d 21) | DSF Tonset ([2]; pH 5, 40° C., d 21) | DSF Tm ([2]; pH 5, d 0) | DSF Tonset ([2]; pH 5, d 0) | DSF Tm ([2]; pH 6, 40° C., d 21) | DSF Tonset ([2]; pH 6, 40° C., d 21) | DSF Tm ([2]; pH 6, d 0) | DSF Tonset ([2]; pH 6, d 0) | DSF Tm ([2]; pH 8, 40° C., d 21) | DSF Tonset ([2]; pH 8, 40° C., d 21) | DSF Tm ([2]; pH 8, d 0) | further results
Ab0429: IgG1 NNAS; 16H7 VL (N25S, D49S, D50A, D91E, N93E); 16H7 VH (M34V, I83T, D109E); HC SEQ ID NO: 42, LC SEQ ID NO: 49 | 5.3 nm | 5.4 nm | 5.4 nm | 5.5 nm | 5.4 nm | 6.3 nm | 5.3 nm | 62 °C | 50 °C | 60 °C | 51 °C | 58 °C | 51 °C | 62 °C | 48 °C | 62 °C | 50 °C | 69 °C | 55 °C | 63 °C | DSF Tonset ([2]; pH 8, d 0): 53 °C; Homogeneity cGE % Monomer [3]: 66%; SPR rel. active fraction (human beta-Klotho; pH 5, 40° C.): 94%; SPR rel. active fraction (human beta-Klotho; pH 6, 40° C.): 92%; SPR rel. active fraction (human beta-Klotho; pH 8, 40° C.): 77%
Ab0335: IgG4 PE; 16H7 VL (N25S, D49S, D50A, D91E, N93E); 16H7 VH (M34V, I83T, D109E); HC SEQ ID NO: 39, LC SEQ ID NO: 46 | 5.2 nm | 5.2 nm | 5.3 nm | 5.1 nm | 5.2 nm | 6.1 nm | 5.3 nm | 63 °C | 52 °C | 62 °C | 45 °C | 61 °C | 51 °C | 62 °C | 50 °C | 63 °C | 52 °C | 68 °C | 57 °C | 68 °C | DSF Tonset ([2]; pH 8, d 0): 57 °C; Homogeneity cGE % Monomer [3]: 79%; SPR rel. active fraction (human beta-Klotho; pH 5, 40° C.): 93%; SPR rel. active fraction (human beta-Klotho; pH 6, 40° C.): 92%; SPR rel. active fraction (human beta-Klotho; pH 8, 40° C.): 73%
Ab0331: IgG4 PE; 16H7 VL (N25S, D49S, D50E, D91E, N93E); 16H7 VH (M34V, I83T, D109E); HC SEQ ID NO: 38, LC SEQ ID NO: 45 | 5.3 nm | 5.3 nm | 5.5 nm | 5.2 nm | 5 nm | 5.9 nm | 5.6 nm | 63 °C | 53 °C | 61 °C | 44 °C | 61 °C | 54 °C | 62 °C | 50 °C | 63 °C | 53 °C | 67 °C | 57 °C | 68 °C | DSF Tonset ([2]; pH 8, d 0): 58 °C; Homogeneity cGE % Monomer [3]: 77%; SPR rel. active fraction (human beta-Klotho; pH 5, 40° C.): 97%; SPR rel. active fraction (human beta-Klotho; pH 6, 40° C.): 91%; SPR rel. active fraction (human beta-Klotho; pH 8, 40° C.): 78%
